The text below walks through data of publication doi:10.1101/2020.05.12.090472 (bioRxiv, 2020).

No end group written: not given here. *: point of attachment. Biotin = O=C1N[C@H]2[C@H](CS[C@H]2CCCCC(=O)*)N1

The assay addresses Recombinant Cdk5/p25 complex (human Cdk5 and p25 with N-terminal GST-tags) (human, UniProt Q00535 1-292; Q15078 99-307). As to the kind of experiment: pull-down.

Biotin-ARAFGIPVRCYS [biotin-conjugated Cdk5i peptide]: the binding result is reported as “binds”.
